These results are taken from PMC8497620, “Structure and inhibition of Cryptococcus neoformans sterylglucosidase to develop antifungal agents” (Nature Communications, 2021).

Chain of C. neoformans Sgl1 (J9W473 entry or part of it): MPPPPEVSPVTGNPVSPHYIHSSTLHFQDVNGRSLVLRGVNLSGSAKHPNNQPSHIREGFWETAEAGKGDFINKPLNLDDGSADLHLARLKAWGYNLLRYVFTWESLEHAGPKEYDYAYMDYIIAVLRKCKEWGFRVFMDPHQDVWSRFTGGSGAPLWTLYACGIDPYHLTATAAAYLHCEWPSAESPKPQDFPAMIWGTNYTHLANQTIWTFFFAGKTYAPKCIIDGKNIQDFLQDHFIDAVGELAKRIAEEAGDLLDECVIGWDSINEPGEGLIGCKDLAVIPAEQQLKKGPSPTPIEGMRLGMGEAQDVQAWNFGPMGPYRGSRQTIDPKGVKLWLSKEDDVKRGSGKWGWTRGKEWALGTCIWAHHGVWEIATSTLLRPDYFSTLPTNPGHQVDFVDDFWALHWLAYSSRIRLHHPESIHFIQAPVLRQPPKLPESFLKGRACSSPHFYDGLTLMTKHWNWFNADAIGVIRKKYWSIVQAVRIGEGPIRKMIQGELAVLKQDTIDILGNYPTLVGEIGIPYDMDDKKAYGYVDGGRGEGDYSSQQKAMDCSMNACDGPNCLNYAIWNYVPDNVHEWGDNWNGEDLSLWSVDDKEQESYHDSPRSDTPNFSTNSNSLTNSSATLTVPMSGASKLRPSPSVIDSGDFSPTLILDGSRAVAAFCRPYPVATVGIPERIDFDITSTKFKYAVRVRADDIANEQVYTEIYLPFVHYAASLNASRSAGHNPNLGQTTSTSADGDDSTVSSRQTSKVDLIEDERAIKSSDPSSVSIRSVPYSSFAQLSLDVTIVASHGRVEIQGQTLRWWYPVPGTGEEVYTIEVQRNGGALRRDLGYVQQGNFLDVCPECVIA

The data set deals with C. neoformans Sgl1 (Cryptococcus neoformans var. grubii, UniProt J9W473). The experiment in a line: H/D exchange mass spectrometry mapping of disordered regions. The following applies: H/D exchange MS of C. neoformans Sgl1; per peptide (amino acids Start-End, Sequence); Fig S2a. As to the method:
HDX-MS reactions were performed in a similar manner as is outlined in previous publications. HDX reactions were conducted in a final reaction volume of 50 µL with a final Sgl1 concentration of 0.6 µM (30 pmol). Exchange was carried out in triplicate for a single time point (3 s at 4 °C). Hydrogen deuterium exchange was initiated by the addition of 48 µL of D2O buffer (100 mM NaCl (20 mM pH 6.0 Bis-Tris), 90.5% D2O (V/V) to 1 µL of protein and 1 µL of H2O. Exchange was terminated by the addition of ice-cold acidic quench buffer, resulting in a final concentration of 0.6 M guanidine-HCl and 0.9% FA post quench. Samples were immediately frozen in liquid nitrogen and stored at −80 °C. Fully deuterated samples were generated by first denaturing the protein in 2 M guanidine for 5 min at 20 °C. Following denaturing, 48 µL of D2O buffer was added to the denatured protein and allowed to incubate for 5 min at 20 °C before quenching. Samples were flash frozen and stored at −80 °C until injection onto the ultra-performance liquid chromatography (UPLC) system for proteolytic cleavage, peptide separation, and injection onto a QTOF for mass analysis.
Protein sample was rapidly thawed and injected onto a UPLC system kept in a cold box at 2 °C. The protein was run over two immobilized pepsin columns (Applied Biosystems; Porosyme 2-3131-00) and the peptides were collected onto a VanGuard Precolumn trap (Waters). The trap was eluted in line with an ACQUITY 1.7 μm particle, 100 × 1 mm^2 C18 UPLC column (Waters), using a gradient of 5–36% B (Buffer A 0.1% formic acid, Buffer B 100% acetonitrile) over 16 min. MS experiments were performed on an Impact QTOF (Bruker) and peptide identification was done by running tandem MS (MS/MS) experiments run in data-dependent acquisition mode. The resulting MS/MS dataset was analyzed using PEAKS7 (PEAKS) and a false discovery rate was set at 1% using a database of purified proteins and known contaminants. HDExaminer Software (Sierra Analytics) was used to automatically calculate the level of deuterium incorporation into each peptide. All peptides were manually inspected for correct charge state and presence of overlapping peptides. Deuteration levels were calculated using the centroid of the experimental isotope clusters, with correction for back exchange generated using the fully deuterated sample. The mass spectrometry proteomics data have been deposited to the ProteomeXchange Consortium via the PRIDE partner repository[31] with the dataset identifier PXD024981.
As for LDVCPEC, the “% Deuterium incorporation, Average” value is 80.8%.

With WLSKEDDVKRGSGKWGWTRGKEWALGTCI, the “% Deuterium incorporation, Average” value came to 17.4%.

IQAPVLRQPPKLPESFL: the “% Deuterium incorporation, Average” value is 31.8%.

With IKSSDPSS, the “% Deuterium incorporation, Average” value is given as 106.2%.

Turning to MRLGMGEAQDVQAWNFGPMGPYRGSRQTIDPKGVKL, the “% Deuterium incorporation, Average” value came to 19.3%.

For DDGSADLHL, the “% Deuterium incorporation, Average” value amounted to 35.8%.

Regarding NASRSAGHNPNLGQTTSTSADGDD, the “% Deuterium incorporation, Average” value came out at 102.3%.

Consider RADDIANE, for which the “% Deuterium incorporation, Average” value is 33.8%.

As to ANQTIWTF, the “% Deuterium incorporation, Average” value was -1.6%.

Turning to WSVDDKEQES, the “% Deuterium incorporation, Average” value is listed as 70.6%.

On to DERAIKSSDPSS, for which the “% Deuterium incorporation, Average” value came to 103.7%.

On to TIDPKGVKL, for which the “% Deuterium incorporation, Average” value is 7.9%.

Turning to NYVPDNVHE, the “% Deuterium incorporation, Average” value amounted to 30.1%.

Turning to INKPLNLDDGSADL, the “% Deuterium incorporation, Average” value is reported as 26.9%.

As for DAIGVIRKKYWSIVQA, the “% Deuterium incorporation, Average” value was 36.2%.

As for RRDLGYVQQGN, the “% Deuterium incorporation, Average” value was found to be 98.6%.

As to NYVPDNVHEWGDNW, the “% Deuterium incorporation, Average” value turned out to be 32.4%.

Turning to LRKCKEWGF, the “% Deuterium incorporation, Average” value is on record as -8.6%.

For TWESLEHAGPKEYD, the “% Deuterium incorporation, Average” value turned out to be 5.0%.

As for IEDERAIKSSDPSS, the “% Deuterium incorporation, Average” value amounted to 101.2%.

IYLPFVHY: the “% Deuterium incorporation, Average” value came to 2.9%.

With RSVPYSSF, the “% Deuterium incorporation, Average” value amounted to 93.7%.

In the case of HCEWPSAESPKPQDF, the “% Deuterium incorporation, Average” value was 58.4%.

Consider STNSNSLTNSSATLTVPMSGASKLRPSPSV, for which the “% Deuterium incorporation, Average” value was 91.4%.

Consider IIDGKNIQD, for which the “% Deuterium incorporation, Average” value was 14.1%.

As to WETAEAGKGDF, the “% Deuterium incorporation, Average” value is given as 47.7%.

STNSNSLTNSSATL: the “% Deuterium incorporation, Average” value came to 102.1%.

Take DTIDILGNYPTL: the “% Deuterium incorporation, Average” value stood at 14.2%.

Turning to YTHLANQTIWTFF, the “% Deuterium incorporation, Average” value worked out at 3.1%.

As to SIRSVPYSSF, the “% Deuterium incorporation, Average” value was found to be 96.6%.

Turning to SRFTGGSGAPLWTL, the “% Deuterium incorporation, Average” value is given as 5.6%.

As to IRKKYWSIVQAV, the “% Deuterium incorporation, Average” value was 45.4%.

For MRLGMGEAQ, the “% Deuterium incorporation, Average” value stood at 9.3%.

For the substance LSGSAKHPNNQPSHIREGF, the “% Deuterium incorporation, Average” value is recorded as 54.3%.

For the substance INKPLNL, the “% Deuterium incorporation, Average” value was 46.8%.

For the substance IGWDSINEPGEGL, the “% Deuterium incorporation, Average” value amounted to 4.5%.

“AASLNASRSAGHNPNLGQTTSTSADGDDSTVSSRQTSKVDL”: the “% Deuterium incorporation, Average” value was determined as 100.9%.

For IIDGKNIQDFLQDHF, the “% Deuterium incorporation, Average” value was found to be 7.4%.

For the substance FLKGRACSSPHF, the “% Deuterium incorporation, Average” value is recorded as 26.5%.

In the case of ASKLRPSPSVIDSGDFSPTL, the “% Deuterium incorporation, Average” value stood at 47.3%.

With ASKLRPSPSVIDSGDFSPTLIL, the “% Deuterium incorporation, Average” value stood at 40.9%.

Consider AIWNYVPDNVHEWGDN, for which the “% Deuterium incorporation, Average” value came to 23.9%.

As for IKSSDPSSVSIRSVPYSSF, the “% Deuterium incorporation, Average” value is given as 106.5%.

Turning to MRLGMGEAQDVQA, the “% Deuterium incorporation, Average” value came to 6.8%.

Regarding TVPMSGASKLRPSPSVIDSGDFSPTL, the “% Deuterium incorporation, Average” value stood at 57.8%.

Take KGRACSSPHFYDGLTL: the “% Deuterium incorporation, Average” value is given as 28.7%.

SSRIRLHHPESIHF: the “% Deuterium incorporation, Average” value stood at 4.1%.

Turning to RWWYPVPGTGE, the “% Deuterium incorporation, Average” value is given as 36.9%.

Turning to ILDGSRAVAAF, the “% Deuterium incorporation, Average” value came out at 24.1%.

Consider WLSKEDDVKRGSGKWGWTRGKE, for which the “% Deuterium incorporation, Average” value is recorded as 27.6%.

Turning to STLPTNPGHQVDF, the “% Deuterium incorporation, Average” value was 73.1%.

On to SRSAGHNPNLGQTTSTSADGDD, for which the “% Deuterium incorporation, Average” value was 102.7%.

For the substance YLHCEWPSAESPKPQDFPAM, the “% Deuterium incorporation, Average” value is given as 56.9%.

On to VIRKKYWSIVQ, for which the “% Deuterium incorporation, Average” value was 49.5%.

On to CKDLAVIPAEQQLKKGPSPTPIEG, for which the “% Deuterium incorporation, Average” value came to 25.2%.

ILDGSRAVAA: the “% Deuterium incorporation, Average” value came to 26.4%.

Turning to RAIKSSDPSSVSIRSVPYSSF, the “% Deuterium incorporation, Average” value came out at 104.9%.

For the substance VQAWNFGPMGPYRGSRQTIDPKGVKL, the “% Deuterium incorporation, Average” value was 24.9%.

As to LTVPMSGASKLRPSPSV, the “% Deuterium incorporation, Average” value is on record as 86.0%.

As to EIYLPFVHY, the “% Deuterium incorporation, Average” value was found to be 0.7%.

IQAPVLRQPPKLPESF: the “% Deuterium incorporation, Average” value is given as 36.0%.

For AKRIAEE, the “% Deuterium incorporation, Average” value was determined as 1.8%.

Turning to TIEVQRNGGAL, the “% Deuterium incorporation, Average” value amounted to 26.9%.

For the substance YVDGGRGEGDYSSQQKAMD, the “% Deuterium incorporation, Average” value was determined as 51.4%.

Turning to IGWDSINEPGEGLIGCKDL, the “% Deuterium incorporation, Average” value came to 4.5%.

On to SINEPGEGL, for which the “% Deuterium incorporation, Average” value is 13.9%.

Regarding IEVQRNGGALRRDLG, the “% Deuterium incorporation, Average” value is 58.5%.

With LVLRGVNL, the “% Deuterium incorporation, Average” value stood at 7.5%.

In the case of QQLKKGPSPTPIEG, the “% Deuterium incorporation, Average” value is given as 10.8%.

In the case of SADGDDSTVSSRQTSKVDL, the “% Deuterium incorporation, Average” value was determined as 103.2%.

For the substance KQDTIDILGNYPTL, the “% Deuterium incorporation, Average” value was found to be 22.4%.

As for PVLRQPPKLPES, the “% Deuterium incorporation, Average” value was determined as 47.4%.

For LRWWYPVPGTGE, the “% Deuterium incorporation, Average” value worked out at 31.2%.

For the substance HCEWPSAESPKPQDFPAM, the “% Deuterium incorporation, Average” value is listed as 59.9%.

Consider MTKHWNWFNA, for which the “% Deuterium incorporation, Average” value was found to be 29.9%.

For the substance NACDGPNCLN, the “% Deuterium incorporation, Average” value turned out to be 19.4%.

For the substance RWWYPVPGTG, the “% Deuterium incorporation, Average” value is on record as 40.0%.

Take TVGIPERIDF: the “% Deuterium incorporation, Average” value was found to be 7.3%.

As for WSRFTGGSGAPLWTL, the “% Deuterium incorporation, Average” value is given as 5.9%.

Take FCRPYPVAT: the “% Deuterium incorporation, Average” value is given as 4.6%.

KDLAVIPAEQQLKKGPSPTPIEG: the “% Deuterium incorporation, Average” value amounted to 24.0%.

YVDGGRGEGD: the “% Deuterium incorporation, Average” value was determined as 72.5%.

As to LRWWYPVPGTGEEVY, the “% Deuterium incorporation, Average” value is 19.1%.

Take YLHCEWPSAESPKPQDF: the “% Deuterium incorporation, Average” value stood at 52.9%.

Take TVPMSGASKLRPSPSV: the “% Deuterium incorporation, Average” value was found to be 90.4%.

Take YTHLANQTIWTF: the “% Deuterium incorporation, Average” value is given as 3.6%.

Regarding WESLEHAGPKEYD, the “% Deuterium incorporation, Average” value was 6.6%.

With “STNSNSLTNSSATLTVPMSGASKLRPSPSVIDSGDFSPTL”, the “% Deuterium incorporation, Average” value was found to be 72.8%.

As to VSIRSVPYSSF, the “% Deuterium incorporation, Average” value turned out to be 97.9%.

In the case of WALGTCIWAHHGVWE, the “% Deuterium incorporation, Average” value is listed as 1.7%.

Regarding RRDLGYVQQGNF, the “% Deuterium incorporation, Average” value turned out to be 98.0%.

As for VGEIGIPYDMDDKKAYGYVDGGRGEGDYSSQQKAMD, the “% Deuterium incorporation, Average” value was 19.4%.

Take LKKGPSPTPIEG: the “% Deuterium incorporation, Average” value was determined as 11.2%.

For QLKKGPSPTPIEG, the “% Deuterium incorporation, Average” value was 10.2%.

In the case of RIRLHHPESIHF, the “% Deuterium incorporation, Average” value is recorded as 6.5%.

In the case of FSTLPTNPGHQVDF, the “% Deuterium incorporation, Average” value is 50.7%.

As to AKRIAEEAGDLLDE, the “% Deuterium incorporation, Average” value is reported as 12.0%.

As for KYAVRVRADDIANE, the “% Deuterium incorporation, Average” value amounted to 12.4%.

As for ARLKAWGYNLL, the “% Deuterium incorporation, Average” value was determined as 2.5%.

As for PVTGNPVSPHYIHSSTL, the “% Deuterium incorporation, Average” value worked out at 36.8%.

On to DVTIVASHGRVEIQGQTLRWWYPVPGTGEEV, for which the “% Deuterium incorporation, Average” value is 19.0%.

DITSTKFKYAVRVRA: the “% Deuterium incorporation, Average” value worked out at 3.2%.

Turning to VWEIATSTLLRPDYFS, the “% Deuterium incorporation, Average” value worked out at 21.9%.

Take KKAYGYVDGGRGEGDYSSQQKAMD: the “% Deuterium incorporation, Average” value came out at 29.0%.

As to AASLNASRSAGHNPNLGQTTSTSADGDD, the “% Deuterium incorporation, Average” value was found to be 99.7%.

Regarding YVDGGRGEGDYSSQ, the “% Deuterium incorporation, Average” value turned out to be 64.9%.

Consider LVLRGVNLSGSAKHPNNQPSH, for which the “% Deuterium incorporation, Average” value is reported as 28.6%.

As to ASKLRPSPSV, the “% Deuterium incorporation, Average” value is listed as 76.0%.

Regarding WLSKEDDVKRGSGKWGWTRGKEWALGTCIWAHHGVWE, the “% Deuterium incorporation, Average” value is on record as 11.7%.

RVFMDPHQDVW: the “% Deuterium incorporation, Average” value came out at 3.4%.

In the case of WNFGPMGPYRGSRQ, the “% Deuterium incorporation, Average” value stood at 53.6%.
